Source: article doi:10.1101/2021.02.03.429507
pKd: −log10 of the molar value.

Experiments:
[1] = target: Core-binding region peptide of E-cad, AlexaFluor 488 at the C-terminus (mouse); assay: two-focus FCS
[2] = target: Core-binding region peptide of E-cad, AlexaFluor 488 at the N-terminus (mouse); assay: two-focus FCS
[3] = target: E-cad construct A (cytoplasmic tail of mouse E-cadherin, FRET labels on the N-terminal segment) (mouse) (UniProt P09803); assay: single-molecule FRET
[4] = target: E-cad construct B (cytoplasmic tail of mouse E-cadherin, FRET labels on the central segment) (mouse) (UniProt P09803); assay: single-molecule FRET
[5] = target: E-cad construct C (cytoplasmic tail of mouse E-cadherin, FRET labels on the C-terminal segment) (mouse) (UniProt P09803); assay: single-molecule FRET

Full-length murine beta-catenin (from UniProt Q02248 1-781) (natural protein)
pKd [1]: < 6.00
pKd [2]: < 6.00
pKd [3]: 8.40
pKd [4]: 8.40
pKd [5]: 8.40
